Measured values taken from patent publication US20260015399A1 (Boehringer Ingelheim, published 2026).
*1 amine or outer side, *2 acyl side, *3 side chain or, on linkers, in order; H or OH if unused. Side-chain parts run from the residue outwards. The star is where a group is joined. C18 diacid = O=C(O)CCCCCCCCCCCCCCCCC(=O)*; γGlu = O=C(O)[C@H](CCC(=O)[*:2])N[*:1]; Isovaleryl = CC(C)CC(=O)*; Ahx = NCCCCCC(=O)O

T1: human NPY2 receptor (human, UniProt P49146 1-381)
T1 construct: whole, on cells; also called hNPY2-R; hNPY2R
T1 sequence (looked up): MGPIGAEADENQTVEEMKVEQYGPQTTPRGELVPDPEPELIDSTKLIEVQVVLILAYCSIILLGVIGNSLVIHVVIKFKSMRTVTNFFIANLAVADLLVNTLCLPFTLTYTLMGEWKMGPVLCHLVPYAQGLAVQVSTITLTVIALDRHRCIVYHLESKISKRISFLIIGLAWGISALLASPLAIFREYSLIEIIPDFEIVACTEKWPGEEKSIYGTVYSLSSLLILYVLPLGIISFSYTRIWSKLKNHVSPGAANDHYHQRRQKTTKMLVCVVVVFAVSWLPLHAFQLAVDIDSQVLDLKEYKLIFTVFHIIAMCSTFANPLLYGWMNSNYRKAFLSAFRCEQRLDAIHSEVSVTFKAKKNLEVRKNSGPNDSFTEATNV


What follows are binders tested against T1, human NPY2 receptor (assay: RLB: displacement of 125I-PYY(1-36) from hNPY2R membranes).

Row | Binder | Ki
1 | Isovaleryl-APEK([Ahx-γGlu-C18 diacid])PEEDATPEEIQRYYASLRHYYNWLTRQRY-NH2 (SMILES CC[C@H](C)[C@H](NC(=O)[C@H](CCC(=O)O)NC(=O)[C@H](CCC(=O)O)NC(=O)[C@@H]1CCCN1C(=O)[C@@H](NC(=O)[C@H](C)NC(=O)[C@H](CC(=O)O)NC(=O)[C@H](CCC(=O)O)NC(=O)[C@H](CCC(=O)O)NC(=O)[C@@H]1CCCN1C(=O)[C@H](CCCCNC(=O)CCCCCNC(=O)CC[C@H](NC(=O)CCCCCCCCCCCCCCCCC(=O)O)C(=O)O)NC(=O)[C@H](CCC(=O)O)NC(=O)[C@@H]1CCCN1C(=O)[C@H](C)NC(=O)CC(C)C)[C@@H](C)O)C(=O)N[C@@H](CCC(N)=O)C(=O)N[C@@H](CCCNC(=N)N)C(=O)N[C@@H](Cc1ccc(O)cc1)C(=O)N[C@@H](Cc1ccc(O)cc1)C(=O)N[C@@H](C)C(=O)N[C@@H](CO)C(=O)N[C@@H](CC(C)C)C(=O)N[C@@H](CCCNC(=N)N)C(=O)N[C@@H](Cc1c[nH]cn1)C(=O)N[C@@H](Cc1ccc(O)cc1)C(=O)N[C@@H](Cc1ccc(O)cc1)C(=O)N[C@@H](CC(N)=O)C(=O)N[C@@H](Cc1c[nH]c2ccccc12)C(=O)N[C@@H](CC(C)C)C(=O)N[C@H](C(=O)N[C@@H](CCCNC(=N)N)C(=O)N[C@@H](CCC(N)=O)C(=O)N[C@@H](CCCNC(=N)N)C(=O)N[C@@H](Cc1ccc(O)cc1)C(N)=O)[C@@H](C)O) [Compound 86] | 4.33 nM
2 | Isovaleryl-APEK([Ahx-γGlu-C18 diacid])PEEDATSEELQRYYVSLRHYYNWLTRQRY-NH2 (SMILES CC(C)CC(=O)N[C@@H](C)C(=O)N1CCC[C@H]1C(=O)N[C@@H](CCC(=O)O)C(=O)N[C@@H](CCCCNC(=O)CCCCCNC(=O)CC[C@H](NC(=O)CCCCCCCCCCCCCCCCC(=O)O)C(=O)O)C(=O)N1CCC[C@H]1C(=O)N[C@@H](CCC(=O)O)C(=O)N[C@@H](CCC(=O)O)C(=O)N[C@@H](CC(=O)O)C(=O)N[C@@H](C)C(=O)N[C@H](C(=O)N[C@@H](CO)C(=O)N[C@@H](CCC(=O)O)C(=O)N[C@@H](CCC(=O)O)C(=O)N[C@@H](CC(C)C)C(=O)N[C@@H](CCC(N)=O)C(=O)N[C@@H](CCCNC(=N)N)C(=O)N[C@@H](Cc1ccc(O)cc1)C(=O)N[C@@H](Cc1ccc(O)cc1)C(=O)N[C@H](C(=O)N[C@@H](CO)C(=O)N[C@@H](CC(C)C)C(=O)N[C@@H](CCCNC(=N)N)C(=O)N[C@@H](Cc1c[nH]cn1)C(=O)N[C@@H](Cc1ccc(O)cc1)C(=O)N[C@@H](Cc1ccc(O)cc1)C(=O)N[C@@H](CC(N)=O)C(=O)N[C@@H](Cc1c[nH]c2ccccc12)C(=O)N[C@@H](CC(C)C)C(=O)N[C@H](C(=O)N[C@@H](CCCNC(=N)N)C(=O)N[C@@H](CCC(N)=O)C(=O)N[C@@H](CCCNC(=N)N)C(=O)N[C@@H](Cc1ccc(O)cc1)C(N)=O)[C@@H](C)O)C(C)C)[C@@H](C)O) [Compound 83] | 6.91 nM
3 | Isovaleryl-APAK([Ahx-γGlu-C18 diacid])PEEDASPEETQRYYVSLRHYYNWLTRQRY-NH2 (SMILES CC(C)CC(=O)N[C@@H](C)C(=O)N1CCC[C@H]1C(=O)N[C@@H](C)C(=O)N[C@@H](CCCCNC(=O)CCCCCNC(=O)CC[C@H](NC(=O)CCCCCCCCCCCCCCCCC(=O)O)C(=O)O)C(=O)N1CCC[C@H]1C(=O)N[C@@H](CCC(=O)O)C(=O)N[C@@H](CCC(=O)O)C(=O)N[C@@H](CC(=O)O)C(=O)N[C@@H](C)C(=O)N[C@@H](CO)C(=O)N1CCC[C@H]1C(=O)N[C@@H](CCC(=O)O)C(=O)N[C@@H](CCC(=O)O)C(=O)N[C@H](C(=O)N[C@@H](CCC(N)=O)C(=O)N[C@@H](CCCNC(=N)N)C(=O)N[C@@H](Cc1ccc(O)cc1)C(=O)N[C@@H](Cc1ccc(O)cc1)C(=O)N[C@H](C(=O)N[C@@H](CO)C(=O)N[C@@H](CC(C)C)C(=O)N[C@@H](CCCNC(=N)N)C(=O)N[C@@H](Cc1c[nH]cn1)C(=O)N[C@@H](Cc1ccc(O)cc1)C(=O)N[C@@H](Cc1ccc(O)cc1)C(=O)N[C@@H](CC(N)=O)C(=O)N[C@@H](Cc1c[nH]c2ccccc12)C(=O)N[C@@H](CC(C)C)C(=O)N[C@H](C(=O)N[C@@H](CCCNC(=N)N)C(=O)N[C@@H](CCC(N)=O)C(=O)N[C@@H](CCCNC(=N)N)C(=O)N[C@@H](Cc1ccc(O)cc1)C(N)=O)[C@@H](C)O)C(C)C)[C@@H](C)O) [Compound 85] | 1.61 nM

The remaining binders from weak to strong by Ki, led by results:

Row | Ki | Binder
4 | 4.62 nM | Isovaleryl-APEK([Ahx-γGlu-C18 diacid])PEEDASEAELQRYYVSLRHYYNWLTRQRY-NH2 (SMILES CC(C)CC(=O)N[C@@H](C)C(=O)N1CCC[C@H]1C(=O)N[C@@H](CCC(=O)O)C(=O)N[C@@H](CCCCNC(=O)CCCCCNC(=O)CC[C@H](NC(=O)CCCCCCCCCCCCCCCCC(=O)O)C(=O)O)C(=O)N1CCC[C@H]1C(=O)N[C@@H](CCC(=O)O)C(=O)N[C@@H](CCC(=O)O)C(=O)N[C@@H](CC(=O)O)C(=O)N[C@@H](C)C(=O)N[C@@H](CO)C(=O)N[C@@H](CCC(=O)O)C(=O)N[C@@H](C)C(=O)N[C@@H](CCC(=O)O)C(=O)N[C@@H](CC(C)C)C(=O)N[C@@H](CCC(N)=O)C(=O)N[C@@H](CCCNC(=N)N)C(=O)N[C@@H](Cc1ccc(O)cc1)C(=O)N[C@@H](Cc1ccc(O)cc1)C(=O)N[C@H](C(=O)N[C@@H](CO)C(=O)N[C@@H](CC(C)C)C(=O)N[C@@H](CCCNC(=N)N)C(=O)N[C@@H](Cc1c[nH]cn1)C(=O)N[C@@H](Cc1ccc(O)cc1)C(=O)N[C@@H](Cc1ccc(O)cc1)C(=O)N[C@@H](CC(N)=O)C(=O)N[C@@H](Cc1c[nH]c2ccccc12)C(=O)N[C@@H](CC(C)C)C(=O)N[C@H](C(=O)N[C@@H](CCCNC(=N)N)C(=O)N[C@@H](CCC(N)=O)C(=O)N[C@@H](CCCNC(=N)N)C(=O)N[C@@H](Cc1ccc(O)cc1)C(N)=O)[C@@H](C)O)C(C)C) [Compound 80]
5 | 2.65 nM | Isovaleryl-APEK([Ahx-γGlu-C18 diacid])PEEDAQPEEIQRYYVSLRHYYNWLTRQRY-NH2 (SMILES CC[C@H](C)[C@H](NC(=O)[C@H](CCC(=O)O)NC(=O)[C@H](CCC(=O)O)NC(=O)[C@@H]1CCCN1C(=O)[C@H](CCC(N)=O)NC(=O)[C@H](C)NC(=O)[C@H](CC(=O)O)NC(=O)[C@H](CCC(=O)O)NC(=O)[C@H](CCC(=O)O)NC(=O)[C@@H]1CCCN1C(=O)[C@H](CCCCNC(=O)CCCCCNC(=O)CC[C@H](NC(=O)CCCCCCCCCCCCCCCCC(=O)O)C(=O)O)NC(=O)[C@H](CCC(=O)O)NC(=O)[C@@H]1CCCN1C(=O)[C@H](C)NC(=O)CC(C)C)C(=O)N[C@@H](CCC(N)=O)C(=O)N[C@@H](CCCNC(=N)N)C(=O)N[C@@H](Cc1ccc(O)cc1)C(=O)N[C@@H](Cc1ccc(O)cc1)C(=O)N[C@H](C(=O)N[C@@H](CO)C(=O)N[C@@H](CC(C)C)C(=O)N[C@@H](CCCNC(=N)N)C(=O)N[C@@H](Cc1c[nH]cn1)C(=O)N[C@@H](Cc1ccc(O)cc1)C(=O)N[C@@H](Cc1ccc(O)cc1)C(=O)N[C@@H](CC(N)=O)C(=O)N[C@@H](Cc1c[nH]c2ccccc12)C(=O)N[C@@H](CC(C)C)C(=O)N[C@H](C(=O)N[C@@H](CCCNC(=N)N)C(=O)N[C@@H](CCC(N)=O)C(=O)N[C@@H](CCCNC(=N)N)C(=O)N[C@@H](Cc1ccc(O)cc1)C(N)=O)[C@@H](C)O)C(C)C) [Compound 81]
6 | 0.58 nM | Isovaleryl-APAK([Ahx-γGlu-C18 diacid])PPEDASPEEIQRYYVSLRHYYNWLTRQRY-NH2 (SMILES CC[C@H](C)[C@H](NC(=O)[C@H](CCC(=O)O)NC(=O)[C@H](CCC(=O)O)NC(=O)[C@@H]1CCCN1C(=O)[C@H](CO)NC(=O)[C@H](C)NC(=O)[C@H](CC(=O)O)NC(=O)[C@H](CCC(=O)O)NC(=O)[C@@H]1CCCN1C(=O)[C@@H]1CCCN1C(=O)[C@H](CCCCNC(=O)CCCCCNC(=O)CC[C@H](NC(=O)CCCCCCCCCCCCCCCCC(=O)O)C(=O)O)NC(=O)[C@H](C)NC(=O)[C@@H]1CCCN1C(=O)[C@H](C)NC(=O)CC(C)C)C(=O)N[C@@H](CCC(N)=O)C(=O)N[C@@H](CCCNC(=N)N)C(=O)N[C@@H](Cc1ccc(O)cc1)C(=O)N[C@@H](Cc1ccc(O)cc1)C(=O)N[C@H](C(=O)N[C@@H](CO)C(=O)N[C@@H](CC(C)C)C(=O)N[C@@H](CCCNC(=N)N)C(=O)N[C@@H](Cc1c[nH]cn1)C(=O)N[C@@H](Cc1ccc(O)cc1)C(=O)N[C@@H](Cc1ccc(O)cc1)C(=O)N[C@@H](CC(N)=O)C(=O)N[C@@H](Cc1c[nH]c2ccccc12)C(=O)N[C@@H](CC(C)C)C(=O)N[C@H](C(=O)N[C@@H](CCCNC(=N)N)C(=O)N[C@@H](CCC(N)=O)C(=O)N[C@@H](CCCNC(=N)N)C(=O)N[C@@H](Cc1ccc(O)cc1)C(N)=O)[C@@H](C)O)C(C)C) [Compound 82]
